Reference: publication PMC5057103, “Crystal structure of a DNA aptamer bound to PvLDH elucidates novel single-stranded DNA structural elements for folding and recognition”

Key:
PvLDH = PvLDH (Plasmodium vivax, UniProt Q4PRK9 1-316); assay: X-ray crystal structure; details: protein: recombinant; tags: His-tag (pET28a, Histrap); chain copies: 2
hLDH-B = hLDH-B (Homo sapiens, UniProt P07195 2-334); assay: EMSA; with or without Mg2+ and EDTA; EMSA: 20 mM HEPES pH 8.0, 5% glycerol, 50 mM NaCl, 5 mM KCl, 5 mM MgCl2 (or none), 5 mM DTT, 10 pmol DNA + 200 pmol protein in 20 ul, 1 h room temperature, gel; details: protein: commercial; chain copies: 4; hairpin with bulge; stem I T3-A34 to A6-T31, stem II G16-C30 to G20-C26, hairpin-bulge contact A22-T12, A21-T13
Sequence of hLDH-B (P07195 2-334): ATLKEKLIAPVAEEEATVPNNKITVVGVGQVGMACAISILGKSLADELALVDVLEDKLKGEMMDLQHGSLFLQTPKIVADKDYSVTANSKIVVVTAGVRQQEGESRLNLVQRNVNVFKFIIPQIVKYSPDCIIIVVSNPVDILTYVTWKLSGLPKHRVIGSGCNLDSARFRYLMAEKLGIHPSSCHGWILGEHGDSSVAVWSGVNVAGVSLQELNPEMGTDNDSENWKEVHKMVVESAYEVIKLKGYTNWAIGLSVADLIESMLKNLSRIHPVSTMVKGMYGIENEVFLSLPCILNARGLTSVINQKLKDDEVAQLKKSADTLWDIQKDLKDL

hLDH-A = hLDH-A (Homo sapiens, UniProt P00338 2-332); assay: as above

## GTTCGATTGGATTGTGCCGGAAGTGCTGGCTCGAAC (structured_DNA) [pL1]
PvLDH
  binding result: binds
hLDH-B
  binding result: no binding
hLDH-A
  binding result: no binding
